Data on 78 sequences can be found in the supplement of paper PMC10126150.

± gives the standard deviation of the averaged measurements.
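Also: ATP exposure 15 min at 22 °C before imaging.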

This series deals with ATP. The series is described as follows: switch fluorescence ratio, 500 uM ATP over buffer (Cy3 cluster intensity, sum of 5 cycles each) (fold (ratio)); higher = stronger signal-on switching upon ATP binding; sequences stand for … in TCGTCGGCAGCGTCAGATGTGTATAAGAGACAGTTTTTTTTTTTTTTTTTTTTTTTTT…TC. The conditions noted are these: aptamer strand: ATP DNA aptamer (quencher-CACCTGGGGGAGTATTGCGGAGGAAGG + anchor), 100 nM annealed; ATP concentration: 500 uM. In a few lines: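 Clusters with intensities outside 100-1000 RFU were excluded. The remaining Cy3-labelled switching-strand clusters on a modified Illumina MiSeq flow-cell had been annealed to 100 nM quencher-labelled ATP aptamer and imaged in selection buffer, then after 15 min with 500 uM ATP at 22 °C, for five cycles separated by NaOH stripping and re-annealing. The fluorescence ratio, averaged per switch-domain sequence, is each cluster's summed target-cycle Cy3 intensity over its summed buffer-cycle Cy3 intensity.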
For ATACTGGACT, the switch fluorescence ratio came to 1.201 ± 0.0084.

Take TAGACGGGCA: the switch fluorescence ratio turned out to be 1.01 ± 0.015. The same measure for AATTTGAGCC: 0.965 ± 0.039; for GATAATAATG: 1.02 ± 0.0061.

As to TTCTGCTCGC, the switch fluorescence ratio came to 1.08 ± 0.058. Take CTATTATTCG: the switch fluorescence ratio came out at 1.01 ± 0.045. To GATTTTGGCG belongs 1.01 ± 0.046; to CTTTTAGGGA, 0.989 ± 0.028; to AGGGGTGCCA, 0.9529 ± 0.0048. The same measure for ACAGTCGGGC: 1.001 ± 0.0073; for AGGGCTGCCC: 1 ± 0.021. As to TCCTGCGCGT, the switch fluorescence ratio stood at 4.52 ± 0.71.

For ATACTCAACA, the switch fluorescence ratio turned out to be 1.248 ± 0.0099. To ATTGCTCTTT belongs 1.0037 ± 0.00058; to GTAGTTCTAG, 0.9852 ± 0.0081. As for AAAACCAGTA, the switch fluorescence ratio amounted to 1.01 ± 0.075. GTGGAAAATT: the switch fluorescence ratio is 0.987 ± 0.018.

Take GGTTGAACCG: the switch fluorescence ratio was 1.01 ± 0.06. To ACGTTTCCCC belongs 1.09 ± 0.025. To TCGAGTGTGC belongs 1.06 ± 0.021; to GCATATTTTG, 0.994 ± 0.029.

As for AGCAAACTTA, the switch fluorescence ratio amounted to 1.14 ± 0.043. To AGGTGATAGG belongs 0.9825 ± 0.0059; to TGTGAGGG, 1.03 ± 0.036; to GTTAGACGGT, 1.02 ± 0.041. TTGACTTTTT: the switch fluorescence ratio is 0.991 ± 0.016. To TTACCCATGG belongs 0.937 ± 0.064. To GCTTGTGATC belongs 1.01 ± 0.028; to ACGGCTAGCG, 1.02 ± 0.022. For the sequence GGGGATGAGG, the switch fluorescence ratio worked out at 0.9698 ± 0.0095. To CTCTGTGACG belongs 1.03 ± 0.012; to GTTTTGGTGG, 0.998 ± 0.029. Take TAACTCTTTT: the switch fluorescence ratio amounted to 0.978 ± 0.044. To CAGAGTTTAG belongs 0.973 ± 0.032. To CTTGGGGCAT belongs 1.025 ± 0.008; to CCAGGGGCGT, 1.393 ± 0.012. To GCCAATAGTT belongs 1.046 ± 0.0073; to GCGGGGGAGG, 0.993 ± 0.029; to AAAACCTCAC, 1.56 ± 0.13. Regarding ATATGAATGA, the switch fluorescence ratio was 1.01 ± 0.015. TCAATGCGCC: the switch fluorescence ratio stood at 1.46 ± 0.4. Take GGGGGCTGGG: the switch fluorescence ratio was 0.992 ± 0.025. Take TTGTTAATGT: the switch fluorescence ratio amounted to 1.06 ± 0.17. To ATGAGCATGG belongs 1.1 ± 0.016. To ATGTCAGAGA belongs 1.02 ± 0.037. To TGTTCGCATG belongs 1.08 ± 0.032; to AATTGGTCCT, 0.986 ± 0.041. Regarding CAGGTTTAGT, the switch fluorescence ratio worked out at 0.9682 ± 0.0043. The same measure for GGGATTCAAC: 1.018 ± 0.0085; for AAAGCCGCTG: 1.02 ± 0.033. To ACTCAGGAGT belongs 1.011 ± 0.0031; to TTCGAAGGTT, 0.979 ± 0.017. The same measure for CATAATTTTT: 0.991 ± 0.062; for AGGGTACTGT: 1.05 ± 0.092.

Consider GAAATTAGAT, for which the switch fluorescence ratio was 1.003 ± 0.0098. As for AATGATTCTT, the switch fluorescence ratio was 0.98 ± 0.016.

Turning to GGATGGACAG, the switch fluorescence ratio is 1 ± 0.01.

For the sequence GTCTAACTTA, the switch fluorescence ratio worked out at 1.01 ± 0.033. The same measure for GTTGGCACTG: 1.036 ± 0.0053; for GAGAAAATAT: 1 ± 0.038; for GAGTTGTCAA: 0.972 ± 0.033. As for TGGTTGGTCA, the switch fluorescence ratio was found to be 0.992 ± 0.01. Take CTAATGGGGA: the switch fluorescence ratio amounted to 0.981 ± 0.044. As to AAATGAGATT, the switch fluorescence ratio was determined as 1.002 ± 0.0048. In the case of CTCGCGGGTG, the switch fluorescence ratio is 1.14 ± 0.11. The same measure for CTTAATGGGG: 0.973 ± 0.024; for TTTGGCATCA: 1.04 ± 0.013. To TGGGCAGAGG belongs 1.01 ± 0.024.

AAGCTAATGT: the switch fluorescence ratio came out at 1.061 ± 0.0089.

TTTGTTTCAC: the switch fluorescence ratio was found to be 1.04 ± 0.043. The same measure for TATGGGAATG: 1.019 ± 0.0021; for CTCTATTGAT: 0.997 ± 0.017. To AACGGGTCTG belongs 1.01 ± 0.039. For the sequence ATCTATTAGC, the switch fluorescence ratio was 0.9896 ± 0.009.

On to CTTGGTTACG, for which the switch fluorescence ratio stood at 0.9738 ± 0.0093. For TTTTTCAATT, the switch fluorescence ratio turned out to be 0.982 ± 0.017. In the case of AAATACCGTT, the switch fluorescence ratio is 1.021 ± 0.0057. Turning to TCGGGGGTCC, the switch fluorescence ratio was 1 ± 0.066.
